Reference: US20080293632, “Use of natriuretic peptides for the treatment of stature disorders related to shox gene” (Gudrun RAPPOLD-HOERBRAND, published 2008)

Columns and labels:
[1] = biological target: T1, SHOX-GST (GST-SHOX-STM, SHOX aa 1-194) (Homo sapiens, UniProt O15266 O15266:1-194); assay: EMSA; five-nucleotide replacement, entire loss of binding; details: tags: N-terminal GST (pGEX, E. coli); chain copies: monomer at low, homodimer at high concentration (stated); label: 32P; 5' overhangs filled in
T1 sequence (O15266 1-194, one chain of several): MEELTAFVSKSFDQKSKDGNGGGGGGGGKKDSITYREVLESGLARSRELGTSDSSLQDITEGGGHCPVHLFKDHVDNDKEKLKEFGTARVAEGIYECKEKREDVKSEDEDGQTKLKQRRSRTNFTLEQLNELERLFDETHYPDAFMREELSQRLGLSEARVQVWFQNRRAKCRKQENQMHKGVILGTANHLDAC
Excerpt: (§1) To create double stranded DNA for mobility shift assays two complementary oligonucleotides were annealed, generating 5′ overhangs on each side to permit radiolabelling using the Taq polymerase. The following oligonucleotides were used in the shift experiments (only the forward strand of the probes are given, putative binding site in bold, mutagenized nucleotides underlined): BNP-1220 Wt: […] [SEQ ID NO: 10]; BNP-1220a: […] [SEQ ID NO: 11]; BNP-1220b: […] [SEQ ID NO: 12]; BNP-1220c: […] [SEQ ID NO: 13]; BNP-600Wt: […] [SEQ ID NO: 14]; BNP-600a: […] CAT [SEQ ID NO: 15]; BNP-600b: […] [SEQ ID NO: 16].
Gel Shift reactions contained 15 mM Hepes pH 7.5, 150 mM NaCl, 1 mM EDTA, 0.5 mM DTT, 0.05% NP-40, 7.5% glycerol, 0.25 mg/ml bovine serum albumin, 1.5 μg poly(dI-dC) and the appropriate ³²P-labelled probe. After addition of protein extract the samples were incubated for 10 min at room temperature. Separation was performed on a 5% nondenaturing polyacrylamide gel with 0.25×TBE at 12 V/cm at room temperature for 50 min. Gels were then dried and exposed overnight at −80° C. […] In competition experiments, varying amounts of unlabelled competitor DNA were added to the samples preceding addition of protein extracts. In supershift experiments, 3 μg of anti-human SHOX-3-specific antibody were applied to the samples and preincubated for 15 min on ice prior separation for 2 h at 12 V/cm and 8° C.

[2] = biological target: T1, SHOX-GST (GST-SHOX-STM, SHOX aa 1-194); assay: as above; details: tags: N-terminal GST (pGEX, E. coli); chain copies: monomer at low, homodimer at high concentration (stated); label: 32P; 5' overhangs filled in; remark: listed apart in the source
Protocol: To test the sequence specificity of the SHOX DNA binding, SHOX-GST was incubated with oligonucleotides containing artificially introduced mutations in the putative SHOX binding site. Nucleotides differing from the wild-type sequence (Wt) are highlighted in green (BNP-1220a, BNP-1220b, BNP-1220c).
as §1
(§2) Gel Shift reactions contained 15 mM Hepes pH 7.5, 150 mM NaCl, 1 mM EDTA, 0.5 mM DTT, 0.05% NP-40, 7.5% glycerol, 0.25 mg/ml bovine serum albumin, 1.5 μg poly(dI-dC) and the appropriate ³²P-labelled probe. After addition of protein extract the samples were incubated for 10 min at room temperature. Separation was performed on a 5% nondenaturing polyacrylamide gel with 0.25×TBE at 12 V/cm at room temperature for 50 min. Gels were then dried and exposed overnight at −80° C. […]

SHOX full length = SHOX full length (Homo sapiens, UniProt O15266 O15266:1-292); assay: ChIP with SHOX antibody, U2OS cells, quantitative PCR; details: tags: tetracycline-inducible in U2OS cells
Chain of SHOX full length (O15266 whole entry, one chain of several): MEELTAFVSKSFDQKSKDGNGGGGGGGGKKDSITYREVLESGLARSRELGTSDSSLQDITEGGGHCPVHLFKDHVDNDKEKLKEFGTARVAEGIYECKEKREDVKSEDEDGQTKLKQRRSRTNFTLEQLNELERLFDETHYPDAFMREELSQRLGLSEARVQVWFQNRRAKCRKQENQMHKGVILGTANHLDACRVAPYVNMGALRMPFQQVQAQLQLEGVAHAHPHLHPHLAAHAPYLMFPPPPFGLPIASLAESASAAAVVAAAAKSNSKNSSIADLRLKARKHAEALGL
Protocol: Hereby U2OS cells, which express the SHOX gene for 48 hours, were treated with formaldehyde to allow fixation of the DNA binding proteins to the DNA. The cell chromatin was isolated and the fixed DNA precipitated together with SHOX through addition of a SHOX specific antibody. For controls, […] or water was used instead of the antibody. The precipitated DNA was analyzed by quantitative RT-PCR for an accumulation of SHOX binding sites in the putative regulatory region of the BNP gene.

[3] = biological target: T1, SHOX-GST (GST-SHOX-STM, SHOX aa 1-194); assay: EMSA; details: tags: N-terminal GST (pGEX, E. coli); chain copies: monomer at low, homodimer at high concentration (stated); label: 32P; 5' overhangs filled in
Protocol: (§3) FIG. 3A: 10 fmol of ³²P-radiolabelled double stranded oligonucleotide containing the putative distal binding site of SHOX was incubated with 0, 0.05, 0.5 and 3 μl purified SHOX-GST (250 nM). Monomeric binding of SHOX-GST could be observed with volumes of 0.05 and 0.5 μl, an increase in SHOX-GST concentration led to the formation of homeodimers.
as §1
as §2, with “min.” for “min. Gels were then dried and exposed overnight at −80° C.”

[4] = biological target: T1, SHOX-GST (GST-SHOX-STM, SHOX aa 1-194); assay: EMSA; details: tags: N-terminal GST (pGEX, E. coli); chain copies: monomer at low, homodimer at high concentration (stated); label: 32P; 5' overhangs filled in; remark: listed apart in the source
Protocol: as §3, with “2A:” for “3A:”, “double-stranded” for “double stranded”, “proximal” for “distal”
as §1
as §2, with “min.” for “min. Gels were then dried and exposed overnight at −80° C.”

B1: BNP-600b (dsDNA)
DNA 1: GGGTTCCTGGTCATACCCAGGCTTTTGGGGAAGGGCCACTGGGGAATCAGCAT
DNA 2: ATGCTGATTCCCCAGTGGCCCTTCCCCAAAAGCCTGGGTATGACCAGGAACCC
B1: no binding [1].

B2: BNP-1220c (dsDNA)
DNA 1: GGGTCACCAGGCCACCTGCTCCCGATACCTAGATCATGGGTGGTCAGATG
DNA 2: CATCTGACCACCCATGATCTAGGTATCGGGAGCAGGTGGCCTGGTGACCC
B2: no binding [2].

B3: BNP-1220 chromatin region (dsDNA)
DNA 1: TAATGATAATTA
DNA 2: TAATTATCATTA
Binder B3 has a binding signal (SHOX full length) of 301 fold enrichment.

B4: BNP-600 chromatin region (dsDNA)
DNA 1: TAATGAATTG
DNA 2: CAATTCATTA
Binder B4 has a binding signal (SHOX full length) of 428 fold enrichment.

B5: BNP-1220 Wt (dsDNA)
DNA 1: TAATCACCAGGCCACCTGCTAATGATAATTAGATCATGGGTGGTCAGATG
DNA 2: CATCTGACCACCCATGATCTAATTATCATTAGCAGGTGGCCTGGTGATTA
B5: binds [3].

B6: BNP-600 Wt (dsDNA)
DNA 1: TTCCTGGTCATACCCAGGCTTTTAATGAATTGCCACTGGGGAATCAGCAT
DNA 2: ATGCTGATTCCCCAGTGGCAATTCATTAAAAGCCTGGGTATGACCAGGAA
B6: binds [4].
